In patent US20220041658A1 (PROTAGONIST THERAPEUTICS, published 2022):
Positions of bridges follow the written chain, without caps; N, C: chain ends. Non-standard residues stand in square brackets, D forms with d. Trp(7-Me) = Cc1cccc2c(C[C@H](N)C(=O)O)c[nH]c12; 2Nal = N[C@@H](Cc1ccc2ccccc2c1)C(=O)O; AEF = NCCOc1ccc(C[C@H](N)C(=O)O)cc1; Cit = NC(=O)NCCC[C@H](N)C(=O)O; Pen = CC(C)(S)[C@H](N)C(=O)O; αMeK = C[C@](N)(CCCCN)C(=O)O; Aib = CC(C)(N)C(=O)O; βAla = NCCC(=O)O

B1: Peptide of SEQ ID NO: 246 (peptide)
peptide: XNTXKXXXXKNX
modifications: Ac-[Pen]-NT-[W(7-Me)]-[Lys(Ac)]-[Pen]-Phe[4-(2-aminoethoxy)]-[2-Nal]-[a-MeLys]-[Lys(Ac)]-N-[NMeArg]-NH2; Pen-Pen disulfide
B2: Peptide of SEQ ID NO: 270 (peptide)
peptide: XNTXKXXXXKXX
modifications: Ac-[Pen]-N-T-[W(7-Me)]-[Lys(Ac)]-[Pen]-Phe[4-(2-aminoethoxy)]-[2-Nal]-[a-MeLys]-[Lys(Ac)]-[bA]-[bA]-NH2; Pen-Pen disulfide
B3: Peptide of SEQ ID NO: 280 (peptide)
peptide: Ac-[Pen]NTX[Cit][Pen][AEF][2Nal][αMeK]K(Ac)[βAla][βAla]-NH2
modifications: disulfide 1-6; not fully specified (residue 4); printed as Ac-[Pen]-N-T-[W(1-Me)]-[Cit]-[Pen]-Phe[4-(2-aminoethoxy)]-[2-Nal]-[a-MeLys]-[Lys(Ac)]-[bA]-[bA]-NH2, Pen-Pen disulfide
B4: Peptide of SEQ ID NO: 267 (peptide)
peptide: XNTXQXXXXKNX
modifications: Ac-[Pen]-NT-[W(7-Me)]-Q-[Pen]-Phe[4-(2-aminoethoxy)]-[2-Nal]-[a-MeLys]-[Lys(Ac)]-N-[bA]-NH2; Pen-Pen disulfide
B5: Peptide of SEQ ID NO: 266 (peptide)
peptide: Ac-[Pen]NT[Trp(7-Me)][Cit][Pen][AEF][2Nal][αMeK]K(Ac)NY-NH2
modifications: disulfide 1-6
SMILES: CC(=O)NCCCC[C@H](NC(=O)[C@](C)(CCCCN)NC(=O)[C@H](Cc1ccc2ccccc2c1)NC(=O)[C@H](Cc1ccc(OCCN)cc1)NC(=O)[C@H]1NC(=O)[C@H](CCCNC(N)=O)NC(=O)[C@H](Cc2c[nH]c3c(C)cccc23)NC(=O)[C@H]([C@@H](C)O)NC(=O)[C@H](CC(N)=O)NC(=O)[C@@H](NC(C)=O)C(C)(C)SSC1(C)C)C(=O)N[C@@H](CC(N)=O)C(=O)N[C@@H](Cc1ccc(O)cc1)C(N)=O
B6: Peptide of SEQ ID NO: 272 (peptide)
peptide: XNTXKXXXXKHX
modifications: Ac-[Pen]-N-T-[W(7-Me)]-[Lys(Ac)]-[Pen]-Phe[4-(2-aminoethoxy)]-[2-Nal]-[a-MeLys]-[Lys(Ac)]-H-[bA]-NH2; Pen-Pen disulfide
B7: Peptide of SEQ ID NO: 240 (peptide)
peptide: Ac-[Pen][Aib]T[Trp(7-Me)]Q[Pen][AEF][2Nal][αMeK]K(Ac)N[βAla]-NH2
modifications: disulfide 1-6
SMILES: CC(=O)NCCCC[C@H](NC(=O)[C@](C)(CCCCN)NC(=O)[C@H](Cc1ccc2ccccc2c1)NC(=O)[C@H](Cc1ccc(OCCN)cc1)NC(=O)[C@H]1NC(=O)[C@H](CCC(N)=O)NC(=O)[C@H](Cc2c[nH]c3c(C)cccc23)NC(=O)[C@H]([C@@H](C)O)NC(=O)C(C)(C)NC(=O)[C@@H](NC(C)=O)C(C)(C)SSC1(C)C)C(=O)N[C@@H](CC(N)=O)C(=O)NCCC(N)=O
B8: Peptide of SEQ ID NO: 269 (peptide)
peptide: XNTXQXXXXKLX
modifications: Ac-[Pen]-N-T-[W(7-Me)]-Q-[Pen]-Phe[4-(2-aminoethoxy)]-[2-Nal]-[a-MeLys]-[Lys(Ac)]-L-[bA]-NH2; Pen-Pen disulfide
B9: Peptide of SEQ ID NO: 257 (peptide)
peptide: Ac-[Pen]NT[Trp(7-Me)][Cit][Pen][AEF][2Nal][αMeK]K(Ac)N[dF]-NH2
modifications: disulfide 1-6
SMILES: CC(=O)NCCCC[C@H](NC(=O)[C@](C)(CCCCN)NC(=O)[C@H](Cc1ccc2ccccc2c1)NC(=O)[C@H](Cc1ccc(OCCN)cc1)NC(=O)[C@H]1NC(=O)[C@H](CCCNC(N)=O)NC(=O)[C@H](Cc2c[nH]c3c(C)cccc23)NC(=O)[C@H]([C@@H](C)O)NC(=O)[C@H](CC(N)=O)NC(=O)[C@@H](NC(C)=O)C(C)(C)SSC1(C)C)C(=O)N[C@@H](CC(N)=O)C(=O)N[C@H](Cc1ccccc1)C(N)=O
B10: Peptide of SEQ ID NO: 274 (peptide)
peptide: XNTXQXXXXKNX
modifications: Ac-[Pen]-N-T-[W(7-Me)]-Q-[Pen]-Phe[4-(2-aminoethoxy)]-[2-Nal]-[Achc]-[Lys(Ac)]-N-[bA]-NH2; Pen-Pen disulfide
B11: Peptide of SEQ ID NO: 253 (peptide)
peptide: XNTXKXXXXKNP
modifications: Ac-[Pen]-NT-[W(7-Me)]-[Lys(Ac)]-[Pen]-Phe[4-(2-aminoethoxy)]-[2-Nal]-[a-MeLys]-[Lys(Ac)]-N-P-NH2; Pen-Pen disulfide
B12: Peptide of SEQ ID NO: 277 (peptide)
peptide: XNTXQXXXXKNX
modifications: Ac-[Pen]-N-T-[W(7-Me)]-Q-[Pen]-Phe[4-(2-aminoethoxy)]-[2-Nal]-[Acbc]-[Lys(Ac)]-N-[bA]-NH2; Pen-Pen disulfide
B13: Peptide of SEQ ID NO: 275 (peptide)
peptide: XNTXQXXXXKNX
modifications: Ac-[Pen]-N-T-[W(7-Me)]-Q-[Pen]-Phe[4-(2-aminoethoxy)]-[2-Nal]-[Spiral_Pip]-[Lys(Ac)]-N-[bA]-NH2; Pen-Pen disulfide
B14: Peptide of SEQ ID NO: 278 (peptide)
peptide: XNTXQXXXXKNX
modifications: Ac-[Pen]-N-T-[W(7-Me)]-Q-[Pen]-Phe[4-(2-aminoethoxy)]-[2-Nal]-[a-MeOrn]-[Lys(Ac)]-N-[bA]-NH2; Pen-Pen disulfide
B15: Peptide of SEQ ID NO: 260 (peptide)
peptide: Ac-[Pen]NT[Trp(7-Me)][Cit][Pen][AEF][2Nal][αMeK]K(Ac)NS-NH2
modifications: disulfide 1-6
SMILES: CC(=O)NCCCC[C@H](NC(=O)[C@](C)(CCCCN)NC(=O)[C@H](Cc1ccc2ccccc2c1)NC(=O)[C@H](Cc1ccc(OCCN)cc1)NC(=O)[C@H]1NC(=O)[C@H](CCCNC(N)=O)NC(=O)[C@H](Cc2c[nH]c3c(C)cccc23)NC(=O)[C@H]([C@@H](C)O)NC(=O)[C@H](CC(N)=O)NC(=O)[C@@H](NC(C)=O)C(C)(C)SSC1(C)C)C(=O)N[C@@H](CC(N)=O)C(=O)N[C@@H](CO)C(N)=O

Molecular target: T1, interleukin-23 receptor (IL-23R) (human, UniProt Q5VWK5 24-629)
T1 sequence (looked up): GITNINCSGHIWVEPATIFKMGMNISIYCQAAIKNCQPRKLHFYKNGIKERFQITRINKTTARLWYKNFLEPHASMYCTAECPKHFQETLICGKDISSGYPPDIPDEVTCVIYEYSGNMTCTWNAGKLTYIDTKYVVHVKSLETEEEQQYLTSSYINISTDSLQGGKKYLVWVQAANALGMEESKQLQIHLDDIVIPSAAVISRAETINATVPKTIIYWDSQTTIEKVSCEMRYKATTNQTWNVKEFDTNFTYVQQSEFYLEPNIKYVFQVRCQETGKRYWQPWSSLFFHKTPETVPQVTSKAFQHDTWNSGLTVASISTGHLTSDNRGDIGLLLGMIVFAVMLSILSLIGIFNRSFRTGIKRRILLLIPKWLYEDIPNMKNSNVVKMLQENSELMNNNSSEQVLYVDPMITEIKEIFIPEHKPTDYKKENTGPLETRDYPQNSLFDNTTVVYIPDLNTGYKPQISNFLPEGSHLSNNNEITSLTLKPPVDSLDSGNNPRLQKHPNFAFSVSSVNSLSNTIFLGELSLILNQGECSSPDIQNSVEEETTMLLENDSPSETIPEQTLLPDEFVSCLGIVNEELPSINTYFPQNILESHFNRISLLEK
Assay: cell-based or functional assay

| Binder | pStat3 HTRF IC50 |
| --- | --- |
| B1 | 4.83 nM |
| B2 | 4.43 nM |
| B3 | 17.1 nM |
| B4 | 0.506 nM |
| B5 | 2.78 nM |
| B6 | 7.13 nM |
| B7 | 17.7 nM |
| B8 | 10.1 nM |
| B9 | 3.88 nM |
| B10 | 0.484 nM |
| B11 | 1.44 nM |
| B12 | 0.639 nM |
| B13 | 2.17 nM |
| B14 | 0.849 nM |
| B15 | 0.699 nM |
